# The DeepSol protein solubility set
# Assay: soluble on expression in E. coli; label from the status in PepcDB or PDB records
row,Sequence,soluble on expression in E. coli
1,MPEKKSLLEVPPELVFSGPFDHVITTYMTLTNISQSPVCFLVKTTVPNSYCVRPNRGILNIGDSKQIEVMLQPLEKVPPDAKQHKFLVQSCVAPSIDVSDLESVWKNVKPDELTYNRLVVTFVDNTDSKSNIECEICTLEFSSVVDNQIPRILQCGHSICQSCASKLAKNCVILCPFCRNETNVSSVASLPKNFALLQAIDQKTLRVPPLEIAKLRQQLSCQLSKLEEQVSKTDKSIKAVGRAQLSNLKDGREFQERKDSIVSYYASIRETINALENEAIGKLHTIADMNVSKNALLVAELSEILKHQNLKIAELKLSMEMDDVELATRSLTDSGTECAVVKPAVLDVALTFPEIDKMALLSMTTKFPSNFSTV,not soluble
2,MPELPEVETIRRTLLPLIVGKTIEDVRIFWPNIIRHPRDSEAFAARMIGQTVRGLERRGKFLKFLLDRDALISHLRMEGRYAVASALEPLEPHTHVVFCFTDGSELRYRDVRKFGTMHVYAKEEADRRPPLAELGPEPLSPAFSPAVLAERAVKTKRSVKALLLDCTVVAGFGNIYVDESLFRAGILPGRPAASLSSKEIERLHEEMVATIGEAVMKGGSTVRTYVNTQGEAGTFQHHLYVYGRQGNPCKRCGTPIEKTVVAGRGTHYCPRCQR,soluble
3,MPEPTADAPTVPKARSCPFLPPDGIADIRAAAPVTRATFTSGHEAWLVTGYEEVRALLRDSSFSVQVPHALHTQDGVVTQKPGRGSLLWQDEPEHTSDRKLLAKEFTVRRMQALRPNIQRIVDEHLDAIEARGGPVDLVKTFANAVPSMVISDLFGVPVERRAEFQDIAEAMMRVDQDAAATEAAGMRLGGLLYQLVQERRANPGDDLISALITTEDPDGVVDDMFLMNAAGTLLIAAHDTTACMIGLGTALLLDSPDQLALLREDPSLVGNAVEELLRYLTIGQFGGERVATRDVELGGVRIAKGEQVVAHVLAADFDPAFVEEPERFDITRRPAPHLAFGFGAHQCIGQQLARIELQIVFETLFRRLPGLRLAKPVEELRFRHDIVFYGVHELPVTWHHHH,soluble
4,MPEQDIASLISEHRILLEEAVREVIRRYPQSLSPSENFSKHIFSSEQLKNIIDTVLAEAWQQSAMVVITLCDEKGECVLTYRMPGTSAEDIAVAGRAAEAAVSFAKENKQIIDPTLHNVIGGIDTSRGGCVVYCAGKVIGGIGISGASAEKNHLIALRAVDSLKSGSQK,not soluble
5,MPESTNFTEEITQWVESLPNWGKAAVAGGVALAVYIPYKFMATRPRKSPLNENWKPDVVYLYQFPRARLLPNLSPFCMKVETWLRMSDITYEIPPCSLSTRSQEGTLPFVELNGKEYYDSSFILRDIDQVIKHTSLDDHLSAEQKATSRAFEAMSEKSLAISACYYRMENVEKMLDQFDPKLFGIFGFLFKLIGSRTYVSALLRRITGSDIGFHSREDIINIGSEDLKAISKYLGNKHYFHGFKPTKVDACIFSHLCQIYYAPYTSEHRDLIDGECKNLAEYVERIKNRFYPDWDDVTTKFSTDTSNWKKRHVARNGNGKH,not soluble
6,MPFIDLQSKLGINVDKWLLAQSGEQPRKRAAFCHAFEKEWIECSHAIGKTRASKECNIEWEDFYECMHRFKTMKRLKEISTQKEKMIKEGTYTPPPHHTGKGEPLS,not soluble
7,MPFWGAGIKILHISEDFRTVKVRLKLRWWNKNANRTQYGGSIFSLTDPIYSLMLMGILREEYYVWDKEASINFIKPGQSDLFAEFEITDGMLDEIYQMTRNGEKCFPEFITHVKDKQGNVVSEVQRKLYVRKLEHHHHHH,not soluble
8,MPGIIQIDDMNQSQALIGNNDEHLKAIEESFDVVIHARGQEVAVKGTKIENVEKAESVLINLLKVIDLGNNITIKDVEAAIKMAHNNTIQHLLDLYDEEITKDAFGKTIRAKTMGQRIYVNAMKNNDLVFGIGPAGTGKTFLAVVYAAKQLRKGAVKRIVLTRPAVEAGESLGFLPGDLKEKVDPYLRPLYDGLYTVLGREQTERFIERGIIEIAPLAYMRGRTLEDAFVILDEAQNTTHAQMKMFLTRLGFGSKMVVTGDQTQIDLPKGVKSGLKEAVSRLHNVKGISILKLDQSDVVRHPLVSKIIEHYEGEN,not soluble
9,MPGKNEYAVESLLTVGNGFLGLRGTTPEMTISDDHYPATYIAGLYNTAASEVAGQVVENEDFVNAPDNQHIALKIGDATDWLTISPDTLQQLHRQLNLKTGLFVAEMILKDADNQQIKLTTKKIANMAQPNDYHLQYTFEPLNFSAPITLKTVTDGSVYNYNVARYRNLTAKHFQVTALSAQENKTVIEVCTNQSNLSVRETSLITGDFFEKEAITIQEEAEKIAQVVTVMAHQGTRYTLEKQVFVQASHAEQSWQVPFTPKDSFAAAAQESARAWQTLWQQANITVTGDLMSQKLLRIHSYHLLASASPFSNQAQALDVSITARGLHGEAYRGHIFWDEIFILPFYIQHYPDTAKQLLLYRYHRLEKAKENAAASQYRGAMYPWQSGRDGRETTQKLHLNPLNGHWGEDHSILQRHVSLAIAYNAWLYWHSTQDHEFMKQYGGEMLLEIAQFWNSAATLDDATGRFFIDKVMGPDEFHEGYPDQAESGLKNNAYTNLMVVWLFEELTNILALFSEEEQAQLFAKTQTTSADLARMQQIQNSLEIEVNSDGIIAQYEGYFGLKEIDWTAMKEKYGNIYRMDRILKAEGESPDDYKVAKQADTLMLFYNLDKTRVDQILEDLGYQLPADYLEKNLLYYLKRTSHGSTLSRIVHAQLAEMAQFHELSWQLYQEALYSDYRDIQGGTTAEGIHTGVMAATIHVTLATYAGVDTRQNELSICPNLPEHWQALAFQFIHQGVTYQFSLTQTSVTITADRDTQLLVQGALIPLTAERPKEVHYQ,not soluble
10,MPGRFELKPTLAKIWHAPDNFRIMEPLPPMHRRGIIIAAIVLVIGFLLPASETSDSPVVTREAQLDLQSQSQPPTEAQLQAQLVAPQNDPDQVAPVAPEPIQEGQPEEQNQPQTQPFQQDSGIGQQWRSYRVESGKTLAQLFRDHGLPPTDVYAMAQVEGAGKPLSNLKNGQMIKIRQNASGVVTGLTIDGDNGQQVLFTRQPDGSFIRAQ,not soluble
11,MPGTEKTQHISLTTQVENRLKHQLSIGALKPGARLITKNIAQELGVSITPVREALLRLVSSSALAVAPAQAFMVPEISLESLLEINTIRTALEEMAVVAAAGKITPDREQTLNALLDEFQQALESGVMEKILLANRAFRFEIYHYADMPTLYAMIEQLWVRLGPSLHFLYDNFKLDDYQNGVNLYRKLLNALVTGDKEASRHCLQNVLQQNVATIKNQYFM,not soluble
12,MPGTKRFQHVIETPEPGKWELSGYEAAVPITEKSNPLTQDLDKADAENIVRLLGQCDAEIFQEEGQALSTYQRLYSESILTTMVQVAGKVQEVLKEPDGGLVVLSGGGTSGRMAFLMSVSFNQLMKGLGQKPLYTYLIAGGDRSVVASREGTEDSALHGIEELKKVAAGKKRVIVIGISVGLSAPFVAGQMDCCMNNTAVFLPVLVGFNPVSMARNDPIEDWSSTFRQVAERMQKMQEKQKAFVLNPAIGPEGLSGSSRMKGGSATKILLETLLLAAHKTVDQGIAASQRCLLEILRTFERAHQVTYSQSPKIATLMKSVSTSLEKKGHVYLVGWQTLGIIAIMDGVECIHTFGADFRDVRGFLIGDHSDMFNQKAELTNQGPQFTFSQEDFLTSILPSLTEIDTVVFIFTLDDNLTEVQTIVEQVKEKTNHIQALAHSTVGQTLPIPLKKLFPSIISITWPLLFFEYEGNFIQKFQRELSTKWVLNTVSTGAHVLLGKILQNHMLDLRISNSKLFWRALAMLQRFSGQSKARCIESLLRAIHFPQPLSDDIRAAPISCHVQVAHEKEQVIPIALLSLLFRCSITEAQAHLAAAPSVCEAVRSALAGPGQKRTADPLEILEPDVQ,soluble
13,MPGTLSFPSDAFPAYPALEIDQPDGWVALAGVGLPLALAAEVPSGQFRPNVLVTVQRFGVGHTVADSRSAVNKSLKALPRFTQTLREDSIEMLGSPGMRVEGYFSDGKGGTMVQALRMCVVEAGPVFDVVQITGTCSGPQTEAFFGQIREIQDTLRLAG,not soluble
14,MPGTTDQIDVNVEVKEKPTGAVMFGAGYSNMEGLILSGSVAQDNIFGTGKFVNLMVNTGSVNKTYSLSYTDPYFTKDGVTAGLDLYKRVLNTRTLSSVMNFNTDTLGAGLRFGIPINENDSIMGGLGAEQTTIDLGPDSPQRNIDFVNKFGRTTINIPATLSWRRDGRDSAIWTTSGTTQRVFAEVGLPGGDLTYYKLSYDLRWYFPITEIFTLMLNGELGYGDGYSGKELPFFKNFFAGGNTSVRGYNISSLGPRDATNRTLGGNKRAVGNIEVLFPMPGMRNDRTVRLSAFLDGGTVWGPGGVRPDQEGLRYSAGIAVTWISPMGPLKISVAQPLNSQPGDNIQRFQFQFGQQFLEHHHHHH,soluble
15,MPIHHAIVHLIEKKPDGTPAVLHARDAELGDSQAIENLLADLNESYNAKNKAWGFFQGESGAYPFSGWLGEYLEGDRDFVGFSREAVEHLQKLMEESNLSTGGHILFAHYQQGMTDYLAIALLHHSEGVAVNESLEVTPSRHLDLGQLHLAARINISEWRNNKQSKQYISFIKGKGGKKVSDYFRDFIGCQEGVDSPSETRTLLKAFSDFVESEDMAEEQAREKTETLVDYATSQARIGEPMTLDALSELMDDQQPRAFYDYIRNKDYGLSPEIPADKRTLNQFRRFTGRAEGLSISFEAHLLGSKVEYDEERDMLIIRQLPTQLKDQLKRRKDLEHHHHHH,not soluble
16,MPITKFIWSPSGTGLSEHAWATSESTGAAWVGNDAAAHISLLRSTVAEELAVPLEQAGMDAATMQRAVDTAIDTWGLRGQAEQDPMTLSSGQTRRLAIAGALITRPEALVLDCPTDGLDTEAIEILHRIVDSFPGNVTVYDRMHTALATTAAEQLRLTSSGDLVPEPAPDPVDTVSARFTPIDLSTDHGPLLCAKNLRIPRGATTVGPISCEVSPSSVTHLAGLNGTGKTSFFLAALGLVASTGTLQVADGVTMGWAPADMDSALSRRTVATELTVGATPELAQAAIEFMGLEQWADTHPLDVPAAWRRFVLIAAALVRGPHLLLLDEPTVNLDAPNHGHLSLLMHRYCAGEFHRMAGLDLGGHHPAVLFTCHDARYAQAVSTAEIRI,not soluble
17,MPITNERKETIRVAKKLNKFIALPSMLNWKVHESDVLRRGRVLCMIRSKNFFFPDDISSLKMRMATVTKHGYLVLYESVDEGLVIDLRSATHILTECDKYKSERIKYSRSHVKVRLPRGNVHMFLRDDDISKWTAALLEAHVSFRPTAAARVVAKPRQQPSKNVETMTAIEPVEVMDSPTSPVTSSNSGLITVLERGVSSEDTLIPSVRRGVIPVNTLRYQIEKHLEMCTPASEQLSKSSDPNISSMYVFHQGIQVKQEPIDDDQEEEQQVQKQLVFKIEGSEDEEAVKKEWWLRSLRC,not soluble
18,MPKIDLIIFDCDGVLVDSEYLAAQIGSQLLKKIGYEISPEELSARYAGLIFPDILKKVEQETGKPTSAHLIDQMSDLFRAQIKTELRAIDGIKEAIEAIQSHYPYCICSNARSTEIKEMLTIVDLYDFFDNKDKIFSAPEVGTKKTKPAPDVFLFAAQQLRVKPKNTIVIEDSIHGVHAATAAGMRVIGFTGGSHSYLGHSNALVEAGAETAIAKHAHLLEVLEAMAVWQDLP,not soluble
19,MPKKAGATSKGKNQTKEPETAPPAAGPVATDPKGFVTIAIHAKPGSRQNAVTDLSTEAVGVAIAAPPSEGEANAELCRYLSKVLDLRKSDVVLDKGGKSREKVVKLLASTTPEEVLEKLKTEAEKK,soluble
20,MPKKRENRGRRKGDKGHVGYISCDQCGARVPEDKAVCVTKMYSPVDASLASELEKKGAIIARYPVTKCYCVNCAVFLGIIKIRAENERKQKARLRLEHHHHHH,not soluble
21,MPKSLSLQDVQLRFSSKFPDKTVLKFTKNYEPVTIQCPLHGSVVYGNLQAAMKSSTGCPECTRNPEKPSPNAVAIRLEDTETGEIYEFASTLAASKFIGCSNSTLAVRLSGRTPFDRLIRYRYRLVK,not soluble
